Source: article PMC3296735
Where a chain is given by its changes, count along the chain named.

How the values were obtained:
N62Q-GIPR-V5 (human) = target: T1, N62Q-GIPR-V5 (human) (UniProt P48546)
T1 sequence: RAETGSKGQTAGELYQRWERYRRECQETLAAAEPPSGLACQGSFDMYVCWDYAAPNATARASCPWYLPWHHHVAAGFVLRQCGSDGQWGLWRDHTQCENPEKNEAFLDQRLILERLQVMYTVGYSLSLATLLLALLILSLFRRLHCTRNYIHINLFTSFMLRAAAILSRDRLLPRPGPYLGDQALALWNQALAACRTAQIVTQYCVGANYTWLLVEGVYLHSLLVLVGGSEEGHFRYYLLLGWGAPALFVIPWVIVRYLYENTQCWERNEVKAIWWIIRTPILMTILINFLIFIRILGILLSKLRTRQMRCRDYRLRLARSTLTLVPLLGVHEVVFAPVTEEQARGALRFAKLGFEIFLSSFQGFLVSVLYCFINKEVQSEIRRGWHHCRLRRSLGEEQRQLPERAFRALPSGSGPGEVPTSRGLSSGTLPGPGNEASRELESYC

N77Q-GIPR-V5 (human) = target: T2, N77Q-GIPR-V5 (human) (UniProt P48546)
T2 sequence: T1 sequence with Q41N, N56Q

[1] = target: T3, human GIPR with C-terminal V5 epitope (GIPR-V5) (human) (UniProt P48546)
T3 sequence: T1 sequence with Q41N

[2] = target: T3, human GIPR with C-terminal V5 epitope (GIPR-V5) (human); remark: listed apart in the source
N115Q-GLP1R-V5 (human) = N115Q-GLP1R-V5 (human) (UniProt P43220)
[3] = target: N63,82,115Q-GLP-1R-V5 (human) (UniProt P43220)
[4] = target: N63,82Q-GLP-1R-V5 (human) (UniProt P43220)
N63Q-GLP1R-V5 (human) = N63Q-GLP1R-V5 (human) (UniProt P43220)
N82Q-GLP1R-V5 (human) = N82Q-GLP1R-V5 (human) (UniProt P43220)
[5] = target: human GLP1R with C-terminal V5 epitope (GLP1R-V5) (human) (UniProt P43220)
[6] = target: human GLP1R with C-terminal V5 epitope (GLP1R-V5) (human) (UniProt P43220); remark: listed apart in the source

GIP peptide (Glucose-dependent Insulinotropic Polypeptide) (from UniProt P09681 52-93) (ligand)
EC50 of GIP for cAMP production (LANCE TR-FRET, 30 min stimulation) in CHO cells expressing the receptor (N62Q-GIPR-V5 (human)): 100 pM | EC50 of GIP for cAMP production (LANCE TR-FRET, 30 min stimulation) in CHO cells expressing the receptor (N77Q-GIPR-V5 (human)): 3.1 nM | EC50 of GIP for cAMP production (LANCE TR-FRET, 30 min stimulation) in CHO cells expressing the receptor [1]: 82 pM | EC50 of GIP for cAMP production (LANCE TR-FRET) in CHO cells expressing the receptor; series of Figure 8A [2]: 34 pM

GLP-1 7–36 amide (ligand)
EC50 of GLP-1 for cAMP production (LANCE TR-FRET, 30 min stimulation) in CHO cells expressing the receptor (N115Q-GLP1R-V5 (human)): 720 pM | EC50 of GLP-1 for cAMP production (LANCE TR-FRET, 30 min stimulation) in CHO cells expressing the receptor [3]: 2.7 nM | EC50 of GLP-1 for cAMP production (LANCE TR-FRET, 30 min stimulation) in CHO cells expressing the receptor [4]: 580 pM | EC50 of GLP-1 for cAMP production (LANCE TR-FRET, 30 min stimulation) in CHO cells expressing the receptor (N63Q-GLP1R-V5 (human)): 630 pM | EC50 of GLP-1 for cAMP production (LANCE TR-FRET, 30 min stimulation) in CHO cells expressing the receptor (N82Q-GLP1R-V5 (human)): 710 pM | EC50 of GLP-1 for cAMP production (LANCE TR-FRET, 30 min stimulation) in CHO cells expressing the receptor; series with the double and triple mutants [5]: 220 pM | EC50 of GLP-1 for cAMP production (LANCE TR-FRET, 30 min stimulation) in CHO cells expressing the receptor; series with the single site mutants [5]: 410 pM

B1: N62,77Q-GIPR-V5 (receptor)
chain: T1 sequence with N56Q
rescue of the cAMP response to GIP (LANCE TR-FRET) in CHO cells co-expressing N62,77Q-GIPR-V5 and wild type GLP1R-V5; EC50 of GIP (neither receptor alone gave a response that could be fitted) [6]: 11 nM
